Measurements reported in US20040101829A1, “Protein that interacts with lipids and methods for treating hyperlipidemia” (The University of Iowa Research Foundation, priority 2002, published 2004).

Columns and labels:
human LDL = assay: ELISA for E2-LDL interaction (anti-LDL McAb capture, anti-E2 McAb detection); assay type: binding
Procedure: FIG. 2: Interaction of E2 with LDL. Increasing amounts of LDL were incubated with purified E2 protein at 4° C. and allowed to bind to mouse monoclonal anti-apolipoprotein B antibody coated in ELISA plates. LDL bound E2 protein was detected with a monoclonal anti-E2 antibody, followed by an alkaline-phosphatase labeled secondary antibody and PNPP substrate. The subtracted blank consisted of E2 protein in the absence of LDL.
Microtiter plates were prepared by coating wells with 100 μl anti-LDL McAb (4 μg/ml in 100 mM bicarbonate buffer, pH 9.6) overnight (ON) at RT (Wuenschmann et al., 2000). […] Plates were washed twice with TBS followed by the addition of 100 μl of E2 protein or E2 protein with LDL in PBS. After ON incubation of samples at RT, plates were washed three times with TBS followed by the addition of anti HCV E2 McAb 108 (7.5 μg/ml). Plates were incubated for 1.5 h and washed three times with TBS; then 100 μl of anti-human IgG-alkaline phosphatase conjugate (Promega, Madison, Wis.) diluted 1/5,000 in BLOTTO was added for 1 h at RT washed four times with TBS, and incubated for 30 min with a 1-mg/ml solution of p-nitrophenyl phosphate (PNPP). Absorbance was measured at 405 nm with a multiwell plate reader. […]

MOLT-4 cells = assay: Cell binding assay by flow cytometry, MOLT-4 cells; assay type: cell-based, human
Procedure: (§1) MOLT-4 cells, a CD4^+ T lymphoblastoid cell line, and Huh7 cells of hepatocyte origin were obtained from ATCC (Manassas, Va.). Human foreskin fibroblasts (FSF) and LDLr-deficient foreskin fibroblasts (Null) from a patient with familial hypercholesterolemia (Hobbs et al., 1987) were kindly provided by Dr. Jheem Medh.
(§2) Recombinant HCV E2 protein or HIV-gp120-FITC, human, rabbit or bovine lipoproteins, HCV or mock virus preparations were added to cells for 60 min at 4° C. Cells were washed and incubated with ligand-specific antibody for 60 min at 4° C. Antibody binding was detected using goat anti-human IgG-Oregon green (10 μg/ml) for 45 min at 4° C. Cells were washed two times, fixed in PBS containing 4% paraformaldehyde, and analyzed by flow cytometry (FACScan, Becton Dickinson).
HCV-E2 was incubated with increasing concentrations of human LDL for one hour at 4° C. prior to the addition of proteins to MOLT-4 cells. Following one hour at 4° C., cells were washed and HCV E2 binding was detected by flow cytometry. […] The increase in E2 binding in the presence of LDL was seen when either the anti-HCV McAb or anti-HCV polyclonal anti-HCV were used for E2 detection (FIG. 3B). […] To determine if HCV E2 influenced binding of human LDL to MOLT-4 cells, HCV-E2 and fluorescently labeled LDL were incubated for one hour at 4° C. and added to MOLT-4 cells for an additional hour. Cells were washed and analyzed for labeled-LDL binding (FIG. 3E and FIG. 3F).

Huh-7 cells = assay: Cell binding assay by flow cytometry, Huh-7 cells; assay type: cell-based, human; conditions: 4° C.
Procedure: FIG. 3A; FIG. 3B; and FIG. 3C: Incubation of LDL enhanced binding of HCV E2. […] Cell-bound E2 was detected using a monoclonal antiE2 antibody (FIG. 3A and FIG. 3C) or a polyclonal anti-E2 serum (FIG. 3B).
as §1, §2

[1] = tested on: 3T3 cells expressing human CD81; assay: Cell binding assay by flow cytometry, mouse 3T3 cells with or without human CD81; assay type: cell-based
Procedure: FIG. 4B: Binding of recombinant HCV E2 to mouse 3T3 cells. Cells were detached non-enzymatically and incubated with recombinant E2 protein. Cell-bound E2 was detected with monoclonal anti-E2 antibody 108, followed by incubation with a secondary fluorescent labeled anti-human IgG. Cells were analyzed by flow cytometry.
FIG. 4C: Binding of HCV E2 and HCV-E2/LDL to mouse 3T3-human CD81 cells. Cells were detached non-enzymatically and incubated with E2 alone or E2/LDL. Cell-bound E2 was detected with monoclonal anti-E2 antibody 108, followed by incubation with a secondary fluorescent labeled anti-human IgG. Cells were analyzed by flow cytometry.
as §2
The increased level of binding of both proteins to MOLT-4 cells may be due to an association between LDL and HCV E2 that enables the resulting complex to bind to either the LDLr or to CD81. […]

[2] = tested on: normal human foreskin fibroblasts (FSF); assay: Cell binding assay by flow cytometry, human foreskin fibroblasts (FSF); assay type: cell-based
Procedure: (§3) FIG. 4D: Binding of recombinant HCV E2 and E2-LDL to human fibroblasts (FSF) and human fibroblasts negative for the human LDLr (Null). Cells were detached non-enzymatically and incubated with E2 or E2/LDL proteins. Cell-bound E2 was detected with monoclonal anti-E2 antibody 108, followed by incubation with a secondary fluorescent labeled anti-human IgG. Cells were analyzed by flow cytometry.
as §2
(§4) The increased level of binding of both proteins to MOLT-4 cells may be due to an association between LDL and HCV E2 that enables the resulting complex to bind to either the LDLr or to CD81. To evaluate this interaction further, mouse 3T3 cells expressing only murine CD81 or cells expressing both murine and human CD81 were studied. […] Therefore, the enhanced E2 binding following incubation with LDL appears to require human LDLr expression on the cell surface. […]

[3] = tested on: human fibroblasts that do not express the human LDLr (Null); assay: Cell binding assay by flow cytometry, LDLr-deficient fibroblasts (Null); assay type: cell-based
Procedure: as §3, §2, §4

B1: HCV E2: Purified recombinant HCV envelope glycoprotein E2 (Ala 384-Lys 715) expressed in CHO cells, obtained from Austral Biologicals (protein)
chain: ETHVTGGSAGHTVSGFVSLLAPGAKQNVQLINTNGSWHLNSTALNCNDSLNTGWLAGLFYHHKFNSSGCPERLASCRPLTDFDQGWGPISYANGSGPDQRPYCWHYPPKPCGIVPAKSVCGPVYCFTPSPVVVGTTDRSGAPTYSWGENDTDVFVLNNTRPPLGNWFGCTWMNSTGFTKVCGAPPCVIGGAGNNTLHCPTDCFRKHPDATYSRCGSGPWITPRCLVDYPYRLWHYPCTINYTIFKIRMYVGGVEHRLEAACNWTRGERCDLEDRDRSELSPLLLTTTQWQVLPCSFTTLPALSTGLIHLHQNIVDVQYLYGVGSSIASWAIK
HCV E2 detected in ELISA with murine McAb against human LDL as capture antibody (human LDL; E2 alone vs E2 with LDL): only detected when complexed with LDL
Extent of E2 captured in relation to LDL concentration (human LDL; increasing amounts of LDL): directly correlated to the LDL concentration used
E2 binding to MOLT-4 cells (MOLT-4 cells; E2 alone, 4° C.): bound to MOLT-4 cells
Amount of labeled LDL bound to MOLT-4 cells after preincubation of LDL with HCV-E2 (MOLT-4 cells; LDL up to concentrations of 2.5 μg/ml, 4° C.): the amount of LDL bound increased
LDL concentration at which the increase in E2 binding was saturable (MOLT-4 cells; MOLT-4 cells, 4° C.): > 2.5 µg/mL
HCV E2 binding to MOLT-4 cells stripped of lipoproteins by dextran sulfate (MOLT-4 cells; cell bound bovine lipoproteins removed with dextran sulfate): decreased
Amount of E2 bound to MOLT-4 cells after incubation with lipoproteins (MOLT-4 cells; human VLDL, LDL and HDL, bovine lipoproteins): increased
Amount of cell-bound E2 on MOLT-4 cells after preincubation with apoprotein B (MOLT-4 cells; preincubation with apoprotein B (apoB100)): did not increase the amount of cell-bound E2
Amount of E2 protein bound to MOLT-4 cells after addition of LDL (MOLT-4 cells; preincubation with human LDL one hour at 4° C.): increased the amount of E2 protein bound
Binding of E2 protein to Huh-7 cells after preincubation with human LDL (Huh-7 cells): increased binding of E2 protein
E2 binding to 3T3 cells ([1]; 3T3 cells expressing human CD81 vs control 3T3 cells): bound only to 3T3 cells expressing human CD81
Amount of cell bound HCV E2 on 3T3-human CD81 cells after preincubation with LDL ([1]; preincubation with LDL): did not increase the amount of cell bound HCV E2
E2 binding to FSF fibroblasts ([2]; E2 alone): bound
E2 binding to LDLr-expressing fibroblasts when preincubated with LDL ([2]; preincubation with LDL): increased binding
E2 binding to Null fibroblasts ([3]; E2 alone): bound
Binding of E2-LDL complexes to Null cells compared with E2 alone ([3]; preincubation with LDL): equally to E2 alone
